In US20220185907A1:
pEC50: −log10 of the molar value.

Columns and labels:
[1] = biological target: CD38 on cells (Raji, Daudi, REH, CD38-transfected HEK293) (human) (UniProt P28907); assay: flow cytometry on Raji cells (express CD19 and CD38)
[2] = biological target: CD38 on cells (Raji, Daudi, REH, CD38-transfected HEK293) (human) (UniProt P28907); assay: flow cytometry on Raji cells (express CD19 and CD38), 11 concentrations from 30 ug/mL
[3] = biological target: CD38 on cells (Raji, Daudi, REH, CD38-transfected HEK293) (human) (UniProt P28907); assay: flow cytometry on Raji cells; top asymptote fixed at about the maximum response of Darzalex

- pEC50 [1]: 8.90
- EC50 [2]: 0.195 µg/mL
- Max MFI [2]: 4.02e+06 MFI
- Adjusted EC50 [3]: 1.27 nM
Substance: Darzalex® (CD38 control) (antibody)
